Reference: publication PMC5071832, “Molecular basis for catalysis and substrate-mediated cellular stabilization of human tryptophan 2,3-dioxygenase” (Scientific Reports, 2016)

Biological target: the molecule itself
Assay: crystal structure; ferrous hTDO (45 mg/ml) with 10 mM L-Trp, under-oil microbatch, anaerobic, 18 °C; precipitant 50 mM sodium citrate pH 5.6, 5% PEG 3350, 2% Tacsimate pH 5; one crystal mounted anaerobically, one soaked overnight in O2-saturated solution; four subunits (A-D) form the tetramer

B1: human tryptophan 2,3-dioxygenase (enzyme)
chain: LPVEGSEEDKSQTGVNRASKGGLIYGNYLHLEKVLNAQELQSETKGNKIHDEHLFIITHQAYELWFKQILWELDSVREIFQNGHVRDERNMLKVVSRMHRVSVILKLLVQQFSILETMTALDFNDFREYLSPASGFQSLQFRLLENKIGVLQNMRVPYNRRHYRDNFKGEENELLLKSEQEKTLLELVEAWLERTPGLEPHGFNFWGKLEKNITRGLEEEFIRIQAKEESEEKEEQVAEFQKQKEVLLSLFDEKRHEHLLSKGERRLSYRALQGALMIYFYREEPRFQVPFQLLTSLMDIDSLMTKWRYNHVCMVHRMLGSKAGTGGSSGYHYLRSTVSDRYKVFVDLFNLSTYLIPRHWIPKMNPTIHKFL
notes: tryptophan 2,3-dioxygenase, human; Heme protein, crystallized in the ferrous state with L-Trp (and O2 or NFK); The construct lacks the N-terminal residues up to at least K17, and K37 lies in a disordered region; also called hTDO; TDO; source: recombinant, purified; oxidized with potassium ferricyanide, G25 column
For B1, the “stoichiometry N” value was 4.
